# Test results: patent US8227408B2, “Leptin as an anti-amyloidogenic biologic and methods for delaying the onset and reducing Alzheimer's disease-like pathology” (Neurotez, Inc., priority 2005, dated 2012)
# B1: Leptin: peptide hormone controlling adaptive metabolic mechanisms to energy availability; leptin (Harbor-UCLA) in vitro, recombinant murine leptin in mice (protein, UniProt P41160 22-167, looked up)
# Leptin: VPIQKVQDDTKTLIKTIVTRINDISHTQSVSAKQRVTGLDFIPGLHPILSLSKMDQTLAVYQQVLTSLPSQNVLQIANDLENLRDLLHLLAFSKSCSLPQTSGLQKPESLDGVLEASLYSTEVVALSRLQGSLQDILQQLDVSPEC
# System: Tg2576 mice
# Experiment: Chronic s.c. leptin infusion in Tg2576 mice under high or low fat diet
# Format: in vivo, mouse
# Method: Blood was withdrawn (approximately 1 ml) from deeply anaesthetized animals by cardiocentesis and mixed with 25 μl of 164 μM EDTA anticoagulant. Plasma was prepared immediately and frozen at −70° C. Plasma leptin concentrations were determined by a radioimmunoassay (RIA) (Chung et al., Am. J Physiol. 274:R985-R990 (1998)), using a kit from LINCO Research, Inc. (Missouri).
# APPswe (SEQ ID NO: 13) expressing mice (Tg2576) or wild-type littermates were maintained in pathogen-free environment at 25° C. on a 12-12 h light-dark cycle. Mice were euthanized between the ages of 31 and 40 weeks. They were provided ad libidum access for up to 9 weeks (i.e., 1 week prior to leptin treatments and 8 weeks during such treatments) to a high fat diet (D12451) containing about 45% of the total calories from fat (Research Diets, NJ) or to a low fat diet (D12450B) containing about 10% of the total calories from fat. Equal number of male and female Tg2576 mice under each diet were administered leptin or a placebo (PBS) from the age of 32 wks to up to 40 wks of age. For this, mice were anaesthetized with intraperitoneal injection of ketamine (55 mg/ml) and xylazine (7-10 mg/ml) and surgically fitted with an Alzet miniosmotic pump (model 2004, Durect Co, CA) placed subcutaneously. Local subcutaneous injection of 0.5 ml of 0.5% lidocaine insured postoperative relief. Half of the mice received daily about 20 μg leptin in PBS (0.25 μl/h of 3.33 mg/ml recombinant murine leptin) and the other half were infused with PBS. Four from each group (two males and two females) were euthanized after 4 weeks treatment. Osmotic pumps were replaced in the rest and the mice then treated for a total period of 8 weeks. Wild-type littermates were also treated with leptin under high or low diet regimens. […]
# In panel (a), plasma leptin was quantified in one year old mice with the following genotypes: i) double mutant APPSwe/PS1M146V ii) single mutant PS1M146V and iii) wild-type (a cross between C57BL/6Ntac and B6SJLF2). […] Plasma Aβ was also measured in these mice prior to treatment. […] In panel (c), plasma leptin was determined by radioimmunoassay (“RIA”) (LINCO Research, Inc.) in 8 month old Tg2576 and WT littermate mice and then again following treatments as described in FIG. 4b. Leptin also was measured in WT but not Tg2576 mice prior to treatment. In panel (d), plasma insulin was determined by RIA (LINCO Research, Inc.) in 8 month old WT and Tg2576 mice and then again following a 2 month LFD or HFD with (+) or without (−) leptin infusion. In panel (e), plasma total Aβ (Aβ40 (SEQ ID NO: 4) plus Aβ42/43 (SEQ ID NO: 5/SEQ ID NO: 6) was measured in 8 month Tg2576 mice and then again following a 2 month LFD or HFD with (+) or without (−) leptin infusion. […]
molecule,measurement,setting,value
B1,levels of circulating Aβ (total Aβ in the plasma),"Tg2576, both diets, 2 month leptin infusion",lower the levels of circulating Aβ under both diets
same,APP expression in adipocytes,"adipose tissue of mice under high or low fat diets, data not shown",no apparent influence
same,"fasting insulin levels (plasma, RIA)","all groups (WT and Tg2576, LFD and HFD), 2 month leptin infusion",decreased fasting insulin levels in all groups
same,brain Aβ load,"chronic administration, s.c. Alzet pump about 20 μg leptin daily, up to 8 weeks",reduced the brain Aβ load
